Test results reported in patent US20200164032A1.

Columns and labels:
[1] = target: human CCL2 (human) (UniProt P13500); test: SPR (Biacore T-100), T17 on CM5 chip; KD,eq
[2] = target: murine CCL5 (mouse) (UniProt P30882); test: SPR (Biacore T-100), T17 on CM5 chip; KD,eq
[3] = target: murine CCL12 (mouse) (UniProt Q62401); test: SPR (Biacore T-100), T17 on CM5 chip; KD,eq
[4] = target: murine CCL8 (mouse) (UniProt Q9Z121); test: SPR (Biacore T-100), T17 on CM5 chip; KD,eq
[5] = target: murine CCL2 (mouse) (UniProt P10148); test: SPR (Biacore T-100), T17 on CM5 chip; KD,eq
Chain of murine CCL2 (mouse) (P10148 24-148 limits assumed): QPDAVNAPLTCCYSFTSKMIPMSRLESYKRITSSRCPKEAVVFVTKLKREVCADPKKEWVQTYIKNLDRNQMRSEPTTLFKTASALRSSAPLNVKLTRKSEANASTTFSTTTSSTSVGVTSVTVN

[6] = target: murine CCL4 (mouse) (UniProt P14097); test: SPR (Biacore T-100), T17 on CM5 chip; KD,eq
Chain of murine CCL4 (mouse) (P14097 24-92 limits assumed): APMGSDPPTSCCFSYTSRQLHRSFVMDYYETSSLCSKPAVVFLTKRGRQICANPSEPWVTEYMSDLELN

[7] = target: murine CCL3 (mouse) (UniProt P10855); test: SPR (Biacore T-100), T17 on CM5 chip; KD,eq
Chain of murine CCL3 (mouse) (P10855 24-92 limits assumed): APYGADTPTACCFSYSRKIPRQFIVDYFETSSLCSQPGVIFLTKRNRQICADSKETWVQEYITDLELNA

[8] = target: murine CCL24 (mouse) (UniProt Q9JKC0); test: SPR (Biacore T-100), T17 on CM5 chip; KD,eq
Chain of murine CCL24 (mouse) (Q9JKC0 27-119 limits assumed): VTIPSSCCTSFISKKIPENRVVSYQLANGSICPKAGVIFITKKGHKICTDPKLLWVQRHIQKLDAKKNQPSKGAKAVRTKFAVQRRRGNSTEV

[9] = target: murine CCL11 (mouse) (UniProt P48298); test: SPR (Biacore T-100), T17 on CM5 chip; KD,eq
Chain of murine CCL11 (mouse) (P48298 24-97 limits assumed): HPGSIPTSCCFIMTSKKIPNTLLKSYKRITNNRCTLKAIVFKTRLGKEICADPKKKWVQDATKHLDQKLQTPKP

[10] = target: CCL9 (UniProt P51670); test: SPR (Biacore T-100), T17 on CM5 chip; KD,eq
Chain of CCL9 (P51670 22-122 limits assumed): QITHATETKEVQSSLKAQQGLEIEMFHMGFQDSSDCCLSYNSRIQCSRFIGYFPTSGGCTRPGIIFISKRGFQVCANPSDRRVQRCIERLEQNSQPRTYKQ

[11] = target: murine CCL20 (mouse) (UniProt O89093); test: SPR (Biacore T-100), T17 on CM5 chip; KD,eq
Chain of murine CCL20 (mouse) (O89093 28-97 limits assumed): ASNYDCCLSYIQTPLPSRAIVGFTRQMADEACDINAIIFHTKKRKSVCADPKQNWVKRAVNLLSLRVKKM

[12] = target: murine CCL21 (mouse) (UniProt P84444); test: SPR (Biacore T-100), T17 on CM5 chip; KD,eq
Chain of murine CCL21 (mouse) (P84444 24-133): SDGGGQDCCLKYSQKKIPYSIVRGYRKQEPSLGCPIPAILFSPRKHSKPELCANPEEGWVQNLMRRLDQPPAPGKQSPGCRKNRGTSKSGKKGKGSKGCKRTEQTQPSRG

[13] = target: human CCL2 (human) (UniProt P13500); test: SPR, T17 amine-coupled to CM5 chip
[14] = target: murine CCL2 (mouse) (UniProt P10148); test: SPR, T17 amine-coupled to CM5 chip
[15] = target: murine CCL3 (mouse) (UniProt P10855); test: SPR, T17 amine-coupled to CM5 chip
[16] = target: CXCL12 (hSDF-1b) (Homo sapiens) (UniProt P48061)
Chain of CXCL12 (hSDF-1b) (Homo sapiens) (P48061 22-93): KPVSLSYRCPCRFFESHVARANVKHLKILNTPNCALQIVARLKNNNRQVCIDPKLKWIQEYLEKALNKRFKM

[17] = target: XCL1 (as tested against T17; species not stated)
[18] = target: CXCL10 (as tested against T17; species not stated)
[19] = target: human CCL2 (human) (UniProt P13500); test: SPR (Biacore T-100), T17 on CM5 chip; global 1:1 mass transport fit
[20] = target: murine CCL5 (mouse) (UniProt P30882); test: as above
[21] = target: murine CCL12 (mouse) (UniProt Q62401); test: as above
[22] = target: murine CCL8 (mouse) (UniProt Q9Z121); test: as above
[23] = target: murine CCL2 (mouse) (UniProt P10148); test: as above
[24] = target: murine CCL4 (mouse) (UniProt P14097); test: as above
[25] = target: murine CCL3 (mouse) (UniProt P10855); test: as above
[26] = target: murine CCL24 (mouse) (UniProt Q9JKC0); test: as above
[27] = target: murine CCL11 (mouse) (UniProt P48298); test: as above
[28] = target: CCL9 (UniProt P51670); test: as above
[29] = target: murine CCL20 (mouse) (UniProt O89093); test: as above
[30] = target: murine CCL21 (mouse) (UniProt P84444); test: as above
[31] = target: human CCL2 (human) (UniProt P13500); test: SPR (Biacore T-100), T17 on CM5 chip; t1/2
[32] = target: murine CCL5 (mouse) (UniProt P30882); test: SPR (Biacore T-100), T17 on CM5 chip; t1/2
[33] = target: murine CCL12 (mouse) (UniProt Q62401); test: SPR (Biacore T-100), T17 on CM5 chip; t1/2
[34] = target: murine CCL8 (mouse) (UniProt Q9Z121); test: SPR (Biacore T-100), T17 on CM5 chip; t1/2
[35] = target: murine CCL2 (mouse) (UniProt P10148); test: SPR (Biacore T-100), T17 on CM5 chip; t1/2
[36] = target: murine CCL4 (mouse) (UniProt P14097); test: SPR (Biacore T-100), T17 on CM5 chip; t1/2
[37] = target: murine CCL3 (mouse) (UniProt P10855); test: SPR (Biacore T-100), T17 on CM5 chip; t1/2
[38] = target: murine CCL24 (mouse) (UniProt Q9JKC0); test: SPR (Biacore T-100), T17 on CM5 chip; t1/2
[39] = target: murine CCL11 (mouse) (UniProt P48298); test: SPR (Biacore T-100), T17 on CM5 chip; t1/2
[40] = target: CCL9 (UniProt P51670); test: SPR (Biacore T-100), T17 on CM5 chip; t1/2
[41] = target: murine CCL20 (mouse) (UniProt O89093); test: SPR (Biacore T-100), T17 on CM5 chip; t1/2
[42] = target: murine CCL21 (mouse) (UniProt P84444); test: SPR (Biacore T-100), T17 on CM5 chip; t1/2
[43] = target: CXCL12 (hSDF-1b) (Homo sapiens) (UniProt P48061); test: BLI (Octet Red), biotinylated T17 on streptavidin biosensors; KD,eq
[44] = target: XCL1 (as tested against T17; species not stated); test: as above
[45] = target: CXCL10 (as tested against T17; species not stated); test: as above
[46] = target: CXCL12 (hSDF-1a) (Homo sapiens) (UniProt P48061); test: BLI (Octet Red), biotinylated T17 on streptavidin biosensors; t1/2
Chain of CXCL12 (hSDF-1a) (Homo sapiens) (P48061 22-89 limits assumed): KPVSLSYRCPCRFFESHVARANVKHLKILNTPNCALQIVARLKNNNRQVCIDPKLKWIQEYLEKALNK

[47] = target: CXCL12 (hSDF-1b) (Homo sapiens) (UniProt P48061); test: as above
[48] = target: XCL1 (as tested against T17; species not stated); test: as above
[49] = target: CXCL10 (as tested against T17; species not stated); test: as above
[50] = target: CXCL12 (hSDF-1b) (Homo sapiens) (UniProt P48061); test: BLI (Octet Red), biotinylated T17 on streptavidin biosensors; KD,kin
[51] = target: XCL1 (as tested against T17; species not stated); test: as above
[52] = target: CXCL10 (as tested against T17; species not stated); test: as above
[53] = target: human CCL2 (human) (UniProt P13500); test: SPR (Biacore T-100), T17 on CM5 chip; KD,kin
[54] = target: murine CCL5 (mouse) (UniProt P30882); test: SPR (Biacore T-100), T17 on CM5 chip; KD,kin
[55] = target: murine CCL12 (mouse) (UniProt Q62401); test: SPR (Biacore T-100), T17 on CM5 chip; KD,kin
[56] = target: murine CCL8 (mouse) (UniProt Q9Z121); test: SPR (Biacore T-100), T17 on CM5 chip; KD,kin
[57] = target: murine CCL2 (mouse) (UniProt P10148); test: SPR (Biacore T-100), T17 on CM5 chip; KD,kin
[58] = target: murine CCL4 (mouse) (UniProt P14097); test: SPR (Biacore T-100), T17 on CM5 chip; KD,kin
[59] = target: murine CCL3 (mouse) (UniProt P10855); test: SPR (Biacore T-100), T17 on CM5 chip; KD,kin
[60] = target: murine CCL24 (mouse) (UniProt Q9JKC0); test: SPR (Biacore T-100), T17 on CM5 chip; KD,kin
[61] = target: murine CCL11 (mouse) (UniProt P48298); test: SPR (Biacore T-100), T17 on CM5 chip; KD,kin
[62] = target: CCL9 (UniProt P51670); test: SPR (Biacore T-100), T17 on CM5 chip; KD,kin
[63] = target: murine CCL20 (mouse) (UniProt O89093); test: SPR (Biacore T-100), T17 on CM5 chip; KD,kin
[64] = target: murine CCL21 (mouse) (UniProt P84444); test: SPR (Biacore T-100), T17 on CM5 chip; KD,kin

Chain of murine CCL8 (mouse) (Q9Z121 24-97 limits assumed): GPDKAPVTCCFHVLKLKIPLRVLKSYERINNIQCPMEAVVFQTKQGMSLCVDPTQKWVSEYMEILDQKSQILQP
Chain of human CCL2 (human) (P13500 24-99 limits assumed): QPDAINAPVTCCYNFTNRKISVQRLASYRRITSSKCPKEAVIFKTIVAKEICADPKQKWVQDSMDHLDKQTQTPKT
Chain of murine CCL5 (mouse) (P30882 24-91 limits assumed): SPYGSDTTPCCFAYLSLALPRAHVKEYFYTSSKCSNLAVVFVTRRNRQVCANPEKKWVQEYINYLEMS
Chain of murine CCL12 (mouse) (Q62401 23-104 limits assumed): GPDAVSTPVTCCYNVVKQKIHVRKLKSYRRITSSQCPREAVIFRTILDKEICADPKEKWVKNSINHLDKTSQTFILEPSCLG

With “T17 chemokine decoy receptor of Rodent herpesvirus Texas (RHVT), C-terminal His tag (6 histidine residues) fusion” as the substance, how does the Kd [1] read?
Its Kd is 14.9 nM.

What about the Kd [2] of the same substance?
The Kd was 4.15 nM.

What about the Kd [3] of the same substance?
The Kd was 12.3 nM.

What about the Kd [4] of the same substance?
The Kd was 3.79 nM.

And the Kd [5]?
Its Kd is 38.9 nM.

What about the Kd [6] of the same substance?
The Kd was 4.74 nM.

And the Kd [7]?
The Kd was 6.76 nM.

And the Kd [8]?
The Kd was 11.9 nM.

And the Kd [9]?
The Kd was 33.5 nM.

And the Kd [10]?
Its Kd is 39.1 nM.

What about the Kd [11] of the same substance?
The Kd was 23.4 nM.

And the Kd [12]?
The Kd was 22.3 nM.

What about the complex half-life [13] of the same substance?
The complex half-life was 26 s.

What about the complex half-life [14] of the same substance?
The complex half-life was 225 s.

And the complex half-life (t1/2) [15]?
The complex half-life (t1/2) was 90 s.

What about the koff [16] of the same substance?
The koff was 0.0173 s⁻¹.

What about the kon [16] of the same substance?
Its kon is 436000 M⁻¹ s⁻¹.

And the koff [17]?
Its koff is 0.0127 s⁻¹.

And the kon [17]?
The kon was 1.23e+06 M⁻¹ s⁻¹.

What about the koff [18] of the same substance?
The koff was 0.0174 s⁻¹.

And the kon [18]?
The kon was 812000 M⁻¹ s⁻¹.

And the koff [19]?
Its koff is 0.0265 s⁻¹.

And the kon [19]?
Its kon is 1.51e+07 M⁻¹ s⁻¹.

And the koff [20]?
Its koff is 0.0035 s⁻¹.

And the kon [20]?
Its kon is 2.41e+06 M⁻¹ s⁻¹.

What about the koff [21] of the same substance?
The koff was 0.0396 s⁻¹.

And the kon [21]?
The kon was 1.56e+07 M⁻¹ s⁻¹.

And the koff [22]?
The koff was 0.0205 s⁻¹.

And the kon [22]?
The kon was 1.66e+07 M⁻¹ s⁻¹.

And the koff [23]?
Its koff is 0.00308 s⁻¹.

What about the kon [23] of the same substance?
Its kon is 431000 M⁻¹ s⁻¹.

And the koff [24]?
Its koff is 0.0212 s⁻¹.

What about the kon [24] of the same substance?
The kon was 8.12e+07 M⁻¹ s⁻¹.

What about the koff [25] of the same substance?
The koff was 0.0076 s⁻¹.

What about the kon [25] of the same substance?
Its kon is 2.35e+06 M⁻¹ s⁻¹.

And the koff [26]?
The koff was 0.0053 s⁻¹.

And the kon [26]?
Its kon is 506000 M⁻¹ s⁻¹.

What about the koff [27] of the same substance?
Its koff is 0.00637 s⁻¹.

What about the kon [27] of the same substance?
The kon was 1.73e+07 M⁻¹ s⁻¹.

What about the koff [28] of the same substance?
Its koff is 0.0298 s⁻¹.

And the kon [28]?
The kon was 1.65e+06 M⁻¹ s⁻¹.

And the koff [29]?
Its koff is 0.0192 s⁻¹.

What about the kon [29] of the same substance?
Its kon is 3.42e+06 M⁻¹ s⁻¹.

What about the koff [30] of the same substance?
The koff was 0.0132 s⁻¹.

What about the kon [30] of the same substance?
The kon was 851000 M⁻¹ s⁻¹.

What about the t1/2 [31] of the same substance?
Its t1/2 is 26.2 s.

And the t1/2 [32]?
Its t1/2 is 196 s.

What about the t1/2 [33] of the same substance?
Its t1/2 is 17.5 s.

And the t1/2 [34]?
The t1/2 was 33.9 s.

What about the t1/2 [35] of the same substance?
Its t1/2 is 225 s.

What about the t1/2 [36] of the same substance?
The t1/2 was 32.7 s.

And the t1/2 [37]?
Its t1/2 is 90.7 s.

And the t1/2 [38]?
The t1/2 was 131 s.

What about the t1/2 [39] of the same substance?
The t1/2 was 109 s.

What about the t1/2 [40] of the same substance?
Its t1/2 is 23.3 s.

And the t1/2 [41]?
Its t1/2 is 36.1 s.

And the t1/2 [42]?
Its t1/2 is 52.5 s.

And the Kd [43]?
Its Kd is 44.2 nM.

And the Kd [44]?
The Kd was 19.2 nM.

What about the Kd [45] of the same substance?
Its Kd is 24.4 nM.

What about the t1/2 [46] of the same substance?
Its t1/2 is 20.2 s.

What about the t1/2 [47] of the same substance?
The t1/2 was 40.1 s.

What about the t1/2 [48] of the same substance?
Its t1/2 is 54.6 s.

What about the t1/2 [49] of the same substance?
Its t1/2 is 39.8 s.

What about the Kd [50] of the same substance?
Its Kd is 39.6 nM.

And the Kd [51]?
Its Kd is 10.4 nM.

What about the Kd [52] of the same substance?
The Kd was 21.4 nM.

And the Kd [53]?
The Kd was 1.76 nM.

And the Kd [54]?
The Kd was 1.47 nM.

What about the Kd [55] of the same substance?
The Kd was 2.54 nM.

What about the Kd [56] of the same substance?
The Kd was 1.23 nM.

What about the Kd [57] of the same substance?
Its Kd is 7.15 nM.

What about the Kd [58] of the same substance?
The Kd was 0.16 nM.

What about the Kd [59] of the same substance?
Its Kd is 3.25 nM.

And the Kd [60]?
The Kd was 10.5 nM.

What about the Kd [61] of the same substance?
Its Kd is 0.37 nM.

What about the Kd [62] of the same substance?
The Kd was 18 nM.

What about the Kd [63] of the same substance?
Its Kd is 5.62 nM.

What about the Kd [64] of the same substance?
Its Kd is 15.5 nM.
